Each block holds one binder with its values, some of them ahead of it.
Tests used:
[1] = molecular target: T1, 5T4-Fc (obtained from Peter L. Stern, University of Manchester) (human, UniProt Q13641 32-355); assay: dual ELISA: coated 5T4-Fc, detection with CD137-bio
T1 construct: also called h5T4-Fc; recombinant 5T4; not shown: Fc part not specified
T1 sequence (looked up): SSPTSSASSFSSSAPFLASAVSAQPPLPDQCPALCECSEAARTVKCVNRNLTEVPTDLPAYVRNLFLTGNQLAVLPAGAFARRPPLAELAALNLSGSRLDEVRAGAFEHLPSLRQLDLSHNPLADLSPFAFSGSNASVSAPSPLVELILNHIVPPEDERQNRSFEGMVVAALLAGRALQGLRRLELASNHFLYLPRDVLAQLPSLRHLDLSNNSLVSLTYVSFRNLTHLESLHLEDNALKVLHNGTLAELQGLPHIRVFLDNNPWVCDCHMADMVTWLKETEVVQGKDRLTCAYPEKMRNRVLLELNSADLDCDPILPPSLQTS
Method: Plates (#655074, Greiner Bio-One GmbH, Germany) were pre-coated with 0.5 μg/ml 5T4-Fc (obtained from Professor Peter Stern, University of Manchester) overnight. CD137-5T4 bsAb were diluted from 8 to 2×10⁻³ μg/ml in 1:4 dilutions and added in duplicates of 50 μl to each well. CD137-bio (Ancell #502-030) was used as detection antibody at 0.5 μg/ml and the binding was detected with Streptavidin-HRP (Pierce #21126). The ELISA was developed with SuperSignal ELISA PICO Chemiluminescent substrate (Thermo Scientific Pierce, Rockford, Ill. USA) during 2-10 minutes and read in an automated microplate based multi-detection reader (FLUOstar OPTIMA, Netherlands).

[2] = molecular target: T2, human/mouse 5T4 chimera aa173-420 (human/mouse chimera, UniProt Q13641 32-420); assay: flow cytometry, chimera-transfected cells
T2 chain: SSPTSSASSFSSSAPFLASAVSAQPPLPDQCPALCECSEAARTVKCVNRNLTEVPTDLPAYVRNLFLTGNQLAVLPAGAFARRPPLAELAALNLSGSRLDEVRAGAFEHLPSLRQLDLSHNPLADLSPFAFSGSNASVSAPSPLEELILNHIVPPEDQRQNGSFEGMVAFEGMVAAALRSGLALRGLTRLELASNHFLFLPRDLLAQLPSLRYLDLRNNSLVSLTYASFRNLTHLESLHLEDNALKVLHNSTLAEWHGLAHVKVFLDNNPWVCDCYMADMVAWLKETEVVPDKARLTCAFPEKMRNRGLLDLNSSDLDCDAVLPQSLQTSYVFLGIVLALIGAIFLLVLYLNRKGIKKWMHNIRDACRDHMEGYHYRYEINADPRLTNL

[3] = molecular target: T3, 5T4 on the SPR chip (amine-coupled on Biacore; biotinylated on MASS-1) (UniProt Q13641 32-355, limits assumed, biotinylated in the MASS-1 assays); assay: SPR Biacore, 5T4 amine-coupled, mAb injected
T3 construct: also called biotinylated 5T4
T3 sequence (looked up): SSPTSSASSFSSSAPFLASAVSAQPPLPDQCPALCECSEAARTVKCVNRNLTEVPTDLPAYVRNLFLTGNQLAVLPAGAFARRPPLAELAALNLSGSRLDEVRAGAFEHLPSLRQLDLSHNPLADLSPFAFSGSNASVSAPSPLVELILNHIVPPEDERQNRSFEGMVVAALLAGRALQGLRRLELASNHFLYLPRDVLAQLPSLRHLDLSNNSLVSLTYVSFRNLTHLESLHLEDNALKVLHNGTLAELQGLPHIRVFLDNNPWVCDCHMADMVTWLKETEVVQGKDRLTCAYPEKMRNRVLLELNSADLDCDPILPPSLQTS
Method: Binding kinetics of the 5T4-specific mAbs have been studied using two different SPR-based platforms, the Biacore 3000 (GE Healthcare) and the MASS-1 platform (Sierra Sensors). Briefly, 5T4 was captured at the sensor chip surface either via direct amine coupling (Biacore platform) or using a streptavidin coated chip and biotinylated 5T4 (MASS-1 platform). The different 5T4-specific mAbs were then injected over the chip in increasing concentrations and the association and dissociation rates studied in real time. A 1:1 Langmuir model was used for curve fitting.

B3: 1206/1207 (antibody, V domains shown)
VH: EVQLLESGGGLVQPGGSLRLSCAASGFTFSGSSMSWVRQAPGKGLEWVSSIYYSGSGTYYADSVKGRFTISRDNSKNTLYLQMNSLRAEDTAVYYCARYGRNVHPYNLDYWGQGTLVTVSS
VL: DIQMTQSPSSLSASVGDRVTITCRASQSISSYLNWYQQKPGKAPKLLIYAASSLQSGVPSRFSGSGSGTDFTLTISSLQPEDFATYYCQQGYYYLPTFGQGTKLEIK
normalized % positive cells [2]: 0.3

B4: 1212/1213 (antibody, V domains shown)
VH: EVQLLESGGGLVQPGGSLRLSCAASGFTFSSYAMSWVRQAPGKGLEWVSYISSYGGYTSYADSVKGRFTISRDNSKNTLYLQMNSLRAEDTAVYYCARYHSGVLDYWGQGTLVTVSS
VL: DIQMTQSPSSLSASVGDRVTITCRASQSISSYLNWYQQKPGKAPKLLIYAASSLQSGVPSRFSGSGSGTDFTLTISSLQPEDFATYYCQQYYYHYLLTFGQGTKLEIK
normalized % positive cells [2]: -0.01
Kd [3]: 0.18 nM
koff [3]: 0.00081 s⁻¹

Other lines, results leading:

EC50 [1]: 1.91 nM
B1: 1626-1208 (bispecific antibody)
chain 1: not shown
chain 2: DIQMTQSPSSLSASVGDRVTITCRASQSISSYLNWYQQKPGKAPKLLIYAASSLQSGVPSRFSGSGSGTDFTLTISSLQPEDFATYYCQQGTGYGPLTFGQGTKLEIKRTVAAPSVFIFPPSDEQLKSGTASVVCLLNNFYPREAKVQWKVDNALQSGNSQESVTEQDSKDSTYSLSSTLTLSKADYEKHKVYACEVTHQGLSSPVTKSFNRGEC

EC50 [1]: 0.4 nM
B2: 1626-1210 (bispecific antibody)
heavy: not shown
light: DIQMTQSPSSLSASVGDRVTITCRASQSISSYLNWYQQKPGKAPKLLIYAASSLQSGVPSRFSGSGSGTDFTLTISSLQPEDFATYYCQQGTGYGPLTFGQGTKLEIKRTVAAPSVFIFPPSDEQLKSGTASVVCLLNNFYPREAKVQWKVDNALQSGNSQESVTEQDSKDSTYSLSSTLTLSKADYEKHKVYACEVTHQGLSSPVTKSFNRGEC

— patent US20220213213A1 (published 2022)
